Assay results reported in US6825001B2, “DNA molecules and protein displaying improved triazine compound degrading ability” (Regents of the University of Minnesota, priority 1997, dated 2004).
Entries after “also recorded” stand apart in the source; their conditions may differ.

Assays:
wild-type AtzA protein = molecular target: T1, wild-type AtzA protein (Pseudomonas sp., UniProt P72156); assay: substrate range of wild-type AtzA protein; assay type: biochemical, Pseudomonas sp. strain ADP
T1 construct: made in house; host or cells: E. coli
Description: Enzyme Kinetics. […] HPLC analysis was done as described above.

[1] = atrazine-degrading activity of AtzA homologs compared with wild type; settings: compared with wild-type AtzA or parent homolog
Procedure: Serial dilutions of the transformation reaction were plated onto LB plates containing 50 μg/ml ampicillin, the remainder of the transformation was stored in 25% glycerol and frozen at −80° C.
Environ. Microbiol., 61, 1451-1457 (1995), at a final concentration of 500 μg/ml to produce an opaque suspension of small particles in the clear agar. […] Positive colonies that most rapidly formed the largest clear zones were selected initially for further analysis. The (approximately) 40 best colonies were picked, pooled, grown in the presence of 50 μg/ml ampicillin and plasmid prepared from them.
Enzyme Kinetics. […] The reactions were stopped by boiling the reaction tubes at specific times, the addition of 500 μl acetonitrile and rapid freezing at −80° C. Thawed samples were centrifuged at 14,000 rpm for 10 minutes, the supernatants were filtered through a […] filter, and placed into crimp-seal HPLC vials. HPLC analysis was done as described above.

[2] = TERBUTHYLAZINE-degrading activity of AtzA homologs; assay type: biochemical; settings: compared with wild-type enzyme
Procedure: TERBUTHYLAZINE was incorporated in solid LB medium at a final concentration of about 400-500 μg/ml to produce an opaque suspension of sample particles in the clear agar. […] HPLC analysis was performed with a Hewlett Packard HP 1090 Liquid Chromatograph system equipped with a photodiode array detector and interfaced to an HP 79994A Chemstation. TERBUTHYLAZINE and its metabolites were resolved by using an analytical C^18 reverse-phase Nova-Pak HPLC column (4 μm-diameter spherical packing, 150 by 3.9 mm; Waters Chromatography, Milford, Mass.) and an acetonitrile (ACN) gradient, in water, at a flow rate of 1.0 ml min^−1. Linear gradients of 0 to 6 min, 10 to 25% ACN; 6 to 21 min, 25 to 65% ACN; 21 to 23 min, 65 to 100% ACN; and 23 to 25 min, 100% ACN were used. Spectral data of the column eluent were acquired between 200 and 400 nm (12-nm bandwidth per channel) at a sampling frequency of 640 ms. Spectra were referenced against a signal of 500 nm.
Sample 1 is a control sample without enzyme. […] Sample 3 employed the T7 homolog (SEQ ID NO:6) and Sample 4 employed the A7 homolog (SEQ ID NO:5). Results were determined by HPLC as described above. FIG. 8(a) provides the percentage of TERBUTHYLAZINE remaining after a 15 minute exposure to homologs A7, A11, and T7. Samples 1-10 refer to the effect of homolog activity in the presence of 50 uM of: Manganese (1); Mangnesium (2), EDTA (3); cobalt (4); zinc (5); iron (6); copper (7); nickel (8); no metal (9); or no eznyme (10). FIG. 8(b) provides the relative amount of hydroxyterbuthylazine as a measure of TERBUTHYLAZINE degradation for homologs A7 (solid bar), A11 (hatched bar), or T7 (open bar) in the presence or absence of additives 1-10 (supra).

For Nc1nc(N)nc(Cl)n1 [Desethyldesisopropylatrazine, 2-chloro-4,6-diamino-s-triazine], the “degradation of substrate by wild-type AtzA protein (in words)” value (“degradation of substrate” for short) (wild-type AtzA protein) was “did not degrade”.

With CCNc1nc(N)nc(Cl)n1 [Desisopropylatrazine, 2-chloro-4-ethylamino-6-amino-s-triazine] the “degradation of substrate” value (wild-type AtzA protein) was “acts on”.

In the case of Nc1nc(N)nc(N)n1 [MELAMINE, 2,4,6-triamino-s-triazine], the “degradation of substrate” value (wild-type AtzA protein) is reported as “did not degrade”.

With CCNc1nc(Cl)nc(NCC)n1 [SIMAZINE, 2-chloro-4,6-diethylamino-s-triazine] the “degradation of substrate” value (wild-type AtzA protein) was “acts on”.

In the case of CCNc1nc(Cl)nc(NC(C)(C)C)n1 [TERBUTHYLAZINE, 2-chloro-4-(ethylamino)-6-(tertiarybutyl-amino)-1,3,5-triazine], the “degradation of substrate” value (wild-type AtzA protein) is reported as “only poorly degraded”.

With CCNc1nc(Cl)nc(NC(C)C)n1 [atrazine, 2-chloro-4-(ethylamino)-6-(isopropylamino)-1,3,5-triazine] the “degradation of substrate” value (wild-type AtzA protein) was “acts on”.

For CC(C)Nc1nc(N)nc(Cl)n1 [desethylatrazine, 2-chloro-4-amino-6-isopropylamino-s-triazine], the “degradation of substrate” value (wild-type AtzA protein) was “acts on”.

B1: A40: AtzA homolog, nucleic acid SEQ ID NO:17, amino acid SEQ ID NO:22 (protein)
chain: MQTLSIQHGTLVTMDQYRRVLGDSWVHVQDGRIVALGVHAKSVPPPADRVIDARGKVVLPGFINAHTHVNQILLRGGPSHGRQFYDWLFNVVYPGQKAMRPEDVAVAVRLYCAEAVRSGITTINENADSAIYPGNIEAAMAVYGEVGVRVVYARMFFDRMDGRIQGYVDALKARSPQVELCSIMEETAVAKDRITALSDQYHGTAGGRISVWPAPATTTAVTVEGMRWAQAFARDRAVMWTLHMAESDHDGRIHGMSPAEYMECYGLLDERLQVAHCVYFDRKDVRLLHRHNVKVASQVVSNAYLGSGVAPVPEMVERGMAVGIGTDNGNSNDSVNMIGDMKFMAHIHRAVHRDADVLTPEKILEMATIDGARSLGMDHEIGSIETGKRADLILLDLRHPQTTPHHHLAATIVFQAYGNEVDTVLIDGNVVMENRCLSFLPPERELAFLEGAQSRATAILQRANMVANPAWRSLEMTPLLHPPPLEEIAAILARLG
In the case of B1, the “atrazine degradation activity (in words)” value [1] is reported as “improved rate of catalytic activity”.

B2: A42: AtzA homolog, nucleic acid SEQ ID NO:18, amino acid SEQ ID NO:23 (protein)
chain: MQTLSIQHGTLVTMDQYRRVLGDSWVHVQDGRIVALGVHAESVPPPADRVIDARGKVVLPGFINAHTHVNQILLRGGPSHGRQFYDWLFNVVYPGQKAMRPEDVAVAVRLYCAEAVRSGITTINENADSAIYPGNIEAAMAVYGEVGVRVVYARMFFDRMDGRIQGYVDALKARSPQVELCSIMEETAVAKDRITALSDQYHGTAGGRISVWPAPATTTAVTVEGMRWAQAFARDRAVMWTLHMAESDHDERIHGMSPAEYMECHGLLDERLQVAHCVYFDRKDVRLLHRHNVKVASQVVSNAYLGSGVAPVPEMVERGMAMGIGTDNGNSNDSVNMIGDMKFMAHIHRAVHRDADVLTPEKILEMATIDGARSLGMDHEIGSIETGKRADLILLDLRHPQTTPHHHLAATIVFQAYGNEVDTVLIDGNVVMENRRLSFLPPERELAFLEEAQSRATAILQRANMVANPAWRSLEMTPLLHPPPLEEIAAILARLG
In the case of B2, the “atrazine degradation activity (in words)” value [1] is reported as “improved rate of catalytic activity” and the “TERBUTHYLAZINE degradation activity (in words)” value [2] is reported as “capable of better degrading”.

B3: A44: AtzA homolog, nucleic acid SEQ ID NO:19, amino acid SEQ ID NO:24 (protein)
chain: MQTLSIQHGTLVTMDQYRRVLGDSWVHVQDGRIVALGVHAESVPPPADRVIDARGKVVLPGFINAHTHVNQILLRGGPSHGRQFYDWLFNVVYPGQKAMRPEDVAVAVRLYCAEAVRSGITTINENADSAIYPGNIEAAMAVYGEVGVRVVYARMFFDRMDGRIQGYVDALKARSPQVELCSIMEETAVAKDRITALSDQYHGTAGGRISVWPAPATTTAVTVEGMRWAQAFARDRAVMWTLHMAESDHDERIHGMSPAEYMECYGLLDERLQVAHCVYFDRKDVRLLHRHNVKVASQVVSNAYLGSGVAPVPEMVERGMAVGIGTDNGNSNDSVNMIGDMKFMAHIHRAVHRDADVLTPEKILEMATIDGARSLGMDHEIGSIETGKRADLILLDLRHPQTTPHHHLAATIVFQAYGNEVDTVLIDGNVVMENRRLSFLPPERELAFLEEAQSRATAILQRANMVANPAWRSLEMTPLLHPLPLEEIAAILARLG
In the case of B3, the “atrazine degradation activity (in words)” value [1] is reported as “improved rate of catalytic activity” and the “TERBUTHYLAZINE degradation activity (in words)” value [2] is reported as “capable of better degrading”.

B4: A46: AtzA homolog, nucleic acid SEQ ID NO:20, amino acid SEQ ID NO:25 (protein)
chain: MQTLSIQHGTLVTMDQYRRVLGDSWVHVQDGRIVALGVHAESVPPPADQVIDARGKVVLPGFINAHTHVNQILLRGGPSHGRQFHDWLFNVVYPGQKAMRPEDVAVAVRLYCAEAVRSGITTINENADSAIYPGNIEAAMAVYGEVGVRVVYARMFFDRMDGRIQGYVDALKARSPQVELCSIMEETAVAKDRITALSDQYHGTAGGRISVWPAPATTTAVTVEGMRWAQAFARDRAVMWTLHMAESDHDGRIHGMSPAEYMECYGLLDERLQVAHCVYFDRKDVRLLHRHNVKVASQVVSNAYLGSGVAPVPEMVERGMAVGIGTDNGNSNDSVNMIGDMKFMAHIHRAVHRDADVLTPEKILEMATIDGARSLGMDHEIGSIETGKRADLILLDLRHPQTTPHHHLAATIVFQAYGNEVDTVLIDGNVVMENRRLSFLPPERELAFLEEAQSRATAILQRANMVANPAWRSLEMTPLLHPPPLEEIAAILARLG
For B4, the “atrazine degradation activity (in words)” value [1] was “improved rate of catalytic activity” and the “TERBUTHYLAZINE degradation activity (in words)” value [2] was “capable of better degrading”.

B5: A60: AtzA homolog, nucleic acid SEQ ID NO:21, amino acid SEQ ID NO:26 (protein)
chain: MQTLSIQHGTLVTMDQYRRVLGDSWVHVQDGRIVALGVHAESVPPPADRVIDARGKVVLPGFINAHTHVNQILLRGGPSHGRQFYDWLFNVVYPGQKAMRPEDVAVAVRLYCAEAVRSGITTINENADSAIYPGNIEAAMAVYGEVGVRVVYARMFFDRMDRRIQGYVDALKARSPQVELCSIMEETAVAKDRITALSDQYHGTAGGRISVWPAPATTTAVTVEGMRWAQAFARDRAVMWTLHMAESDHDERIHGMSPAEYMECYGLLDERLQVAHCVYFDRKDIRLLHRHNVKVASQAVSNAYLGSGVAPVPEMVERGMAVGIGTDNGNSNDSVNMIGDMKFMAHIHRAVHRDADVLTPEKILEMATIDGARSLGMDHEIGSIETGKRADLILLDLRHPQTTPHHHLAATIVFQAYGNEVDTVLIDGNVVMENRRLSFLPPERELAFLEEAQSRATAILQRANMVANPAWRSLEMTPLLHPPPLEEIAAILAQLG
For B5, the “atrazine degradation activity (in words)” value [1] was “improved rate of catalytic activity” and the “TERBUTHYLAZINE degradation activity (in words)” value [2] was “capable of better degrading”.

B6: T7: AtzA homolog, gene SEQ ID NO:4, protein SEQ ID NO:6 (protein)
chain: SAATAALIMKASMVTLTPLFSFSLLNCTRKASRSVMSASSWLVTCGMTTQLRCRFFDGVISALRRVTHYWRHIMQTLSIQHGTLVTMDQYRRVLGDSWVHVQDGRIVALGVHAESVPPPADRVIDARGKVVLPGFINAHTHVNQILLRGGPSHGRQFYDWLFNVVYPGQKAMRPEDVAVAVRLYCAEAVRSGITTINENADSAIYPGNIEAAMAVYGEVGVRVVYARMFFDRMDGRIQGYVDALKARSPQVELCSIMEETAVAKDRITALSDQYHGTAGGRISVWPAPATTTAVTVEGMRWAQAFARDRAVMWTLHMAESDHDERIHGMSPADYMECYGLLDERLQVAHCVYFDRKDVRLLHRHNVKVASQVVSNAYLGSGVAPVPEMVERGMAVGIGTDNGNSNDSVNMIGDMKFMAHIHRAVHRDADVLTPEKILEMATIDGARSLGMDHEIGSIETGKRADLILLDLRHPQTTPHHHLAATIVFQAYGNEVDTVLIDGNVVMENRRLSFLPPERELAFLEEAQSRATAILQRANMVANPAWRSLEMTPLLHPPPLEEIAAILARLGLGGGHDLDGYRIAMNAALPSFARVESLVGEGRLRAPASRRSERPE
With B6 the “atrazine degradation activity (in words)” value [1] was “enhanced atrazine degradation activity” and the “TERBUTHYLAZINE degradation activity (in words)” value [2] was “better than the wild-type enzyme; also recorded: enhanced TERBUTHYLAZINE degradation activity”.
